Measurements taken from paper PMC10643153.
Values joined by “and” are separate entries in the source; they are usually repeats but may differ in a detail not shown here. Identical values can stand only once.

Experiments:
[1] = target: recombinant goldfish AdipoQ (His-tagged gAdipoQ) (goldfish (Carassius auratus)); assay: native gel or EMSA; self-association; protein electrophoresis in native gel under non-denaturing conditions, Coomassie blue staining; parallel SDS-PAGE as reference for the monomer
[2] = target: recombinant goldfish AdipoQ (His-tagged gAdipoQ) (goldfish (Carassius auratus)); assay: SEC-MALS; self-association; top five fractions of the SEC peak pooled, 200-µl sample on a Superose 12 10/300 GL column linked with a DynaPro NanoStar instrument; apparent MW in solution

Q: With “recombinant goldfish AdipoQ (His-tagged gAdipoQ) (domain or fragment)” as the substance, how does the stoichiometry N [1] read?
A: 3 and 6

Q: And the stoichiometry N [2]?
A: 3
